Experimental data: patent US10563220B2, “Compositions and methods for efficient targeting of transgenes” (priority 2015, dated 2020)

How the values were obtained:
[1] = test system: transgenic F1 hybrid maize expressing APG6 operably linked to PPO H_N10; assay: PPO herbicide pre-emergence injury, maize with APG6-PPO H_N10; format: in vivo; details: 20 days after treatment
Protocol: (§1) Transgenic F1 hybrid maize expressing APG6 operably linked to PPO H_N10 was assessed for tolerance to different seven different PPO herbicides: S-3100, Fomesafen, Acifluorfen, Lactofen, Flumioxazin, Sulfentrazone, and Saflufenacil. Pooled seed representing 5 unique events was planted in pots in a greenhouse along with hybrid maize seed as a negative control.
(§2) To test for pre-emergence herbicide tolerance, PPO herbicides were applied individually at one of two rates with six reps per treatment as follows: S-3100 (80 or 160 g ai/ha), fomesafen (Reflex®, 840 or 1680 g ai/ha), flumioxazin (Valor® SX, 210 or 420 g ai/ha), sulfentrazone (Spartan® 4L, 840 or 1680 g ai/ha), and saflufenacil (Sharpen®, 200 or 400 g ai/ha). Plants were rated for percentage of crop injury at 20 days after treatment, and maize seed was included as a negative control. […] Negative control maize plants had injury ratings ranging from 17.5% to 94.2%, with the exception of Saflufenacil, which is expected since this herbicide is marketed for used in conventional maize plants. Data are presented in Table 15 with standard error indicated as +/−.

[2] = test system: negative control hybrid maize; assay: PPO herbicide pre-emergence injury, negative control maize; format: in vivo; details: 20 days after treatment
Protocol: as §1, §2

[3] = test system: transgenic Brassica napus plants; assay: Dicamba tolerance in R0 Brassica napus, greenhouse; details: R0 plants with one copy with vector backbone or two copies, tolerant = injury 20% or less, 21 days
Protocol: Brassica napus variety 65037 Restorer line was used for Agrobacterium-mediated transformation and R0 plants were grown in the greenhouse.
Dicamba tolerance was assessed using R0 plants with one copy of transgene with vector backbone or two copies of transgene. Dicamba tolerance was designated as dicamba injury of 20% or less under greenhouse conditions.
Dicamba tolerance was assessed on R0 plants with a one copy of the transgene. Plants were sprayed in the greenhouse with dicamba (Clarity) at 1 lb ae/acre (2× rate), and dicamba tolerance was determined 14 to 21 days later.

[4] = test system: transgenic R1 soybean plants; assay: PPO herbicide testing of R1 soybean (S-3100, greenhouse); details: for Injury V4 stage / Injury R1 stage: ten days after treatment
Protocol: Regenerated R0 transgenic plantlets were grown in the greenhouse, selfed, and R1 seed was collected. Transgenic R1 plants were sprayed in the greenhouse with one of three herbicide treatments applied at V4 and R1: (1) 5 grams ai/ha S-3100, (2) 10 grams ai/ha S-3100, or (3) 30 grams ai/ha S-3100. Crop injury ratings were assessed at ten days after treatment.

[5] = test system: transgenic Brassica napus plants; assay: Dicamba tolerance in R1 Brassica napus, greenhouse, three sprays; format: in vivo; details: dicamba 2 lb ae/acre at planting, 1 lb ae/acre at V3, 1 lb ae/acre at first flower
Excerpt: Plants were sprayed with 2 lb ae/acre dicamba (4×) on the day of planting, followed by 1 lb ae/acre dicamba (2×) dicamba at V3 stage, and 1 lb ae/acre dicamba (2×) dicamba at first flower (defined as >90% of plants having bolted and about 25% having at least one open flower). Injury ratings were taken seven days after each spray and expressed as percent injury compared to sprayed controls. For plants containing APG6+DMO, there were 9 progeny total from 2 events with dicamba injury ratings of ≤20% at each of the three rating periods. For plants containing RbcS+DMO, there were 77 plants across 16 events with dicamba tolerance of less than 20% at each of the three rating periods.

[6] = test system: transgenic F1 hybrid maize plants; assay: F1 hybrid maize field trial of dicamba injury and yield; format: in vivo
Protocol: Dicamba tolerance was evaluated in a field trial for the transgenic F1 hybrid plants. The field trial included four treatments at two locations with two replications each. The four treatments were: (1) dicamba (Clarity®) applied at 2 lbs ae/acre (4×) at V2 followed by V4 followed by V8; (2) dicamba applied at 4 lbs at/acre (8×) at V2 followed by V4 followed by V8; (3) dicamba applied at 8 lbs at/acre (16×) at V2 followed by V4 followed by V8; and (4) dicamba applied at 16 lbs at/acre (32×) at V2 followed by V4 followed by V8. Crop injury was rated ten days after treatment and measured as crop injury percent per V-stage (CIPV2, CIPV4, or CIPV8). At the end of the season, grain was harvested and yield measured as bushels/acre. For both CIPV ratings and yield the least significant difference (LSD) at probability of 5% (p=0.05) was calculated.

[7] = test system: R0 transgenic cotton plants; assay: S-3100 tolerance of R0 transgenic cotton, greenhouse; details: 20 g ai/ha S-3100 at V2, three days after treatment
Protocol: Regenerated R0 transgenic plantlets were grown in the greenhouse, and leaf samples taken from the resulting R0 plants were analyzed by PCR to identify plants containing a single copy of an event. Transgenic single-copy R0 plants, each representing a unique event, were sprayed in the greenhouse with the herbicide treatment 20 g ai/ha of S-3100 applied at V2 stage. Additionally, transgenic multi-copy (≥2 copies/plant) were sprayed in the greenhouse with the herbicide treatment 20 g ai/ha of S-3100 applied at V2 stage. Injury ratings were taken at three days after treatment.

[8] = test system: R1 transgenic cotton plants; assay: R1 cotton greenhouse dicamba injury; details: dicamba 1120 g ai/ha at V4; rated 9 days after treatment; DMO SEQ ID NO:18
Excerpt: Ten R1 seeds per event from 10 events for each construct and seed from DP393 cotton was planted to evaluate crop tolerance to post-emergence application of dicamba. Dicamba (Clarity) was applied at the V4 stage at 1120 g ai/ha. Crop injury percent ratings were taken 9 days after the treatment.

[9] = test system: R1 transgenic soybean plants; assay: R1 soybean greenhouse dicamba injury; details: dicamba 1120 g ai/ha at V4; rated 10 days after treatment; DMO SEQ ID NO:18
Excerpt: Transgenic soybean plants were generated with two DNA constructs that were identical except for the APG6 CTP. The first DNA construct had APG6 (SEQ ID NO:1) operably linked to DMO (SEQ ID NO:18). The second DNA construct had the optimized APG6 (SEQ ID NO:2) operably linked to DMO (SEQ ID NO:18). Each DNA construct was used to transform A3555 soybean by Agrobacterium mediated transformation methods. Following transformation, R0 transgenic plants containing a single copy of the transgene were identified by PCR assay. Single-copy R0 plants were grown in greenhouse, and R1 seed was harvested. Ten R1 seeds per event for 4 events generated using each of the two DNA constructs and AG3555 seed was planted for evaluation of crop tolerance to post-emergence dicamba treatment under standard greenhouse growth conditions. Dicamba (Clarity) was applied at the V4 stage at 1120 g ai/ha. Crop injury ratings were taken 10 days after the treatment.

[10] = dicamba 2 lbs ae/acre (4×) at V2 fb V4 fb V8
[11] = dicamba 4 lbs (8×) at V2 fb V4 fb V8
[12] = dicamba 8 lbs (16×) at V2 fb V4 fb V8
[13] = dicamba 16 lbs (32×) at V2 fb V4 fb V8

## CS(=O)(=O)NC(=O)c1cc(Oc2ccc(C(F)(F)F)cc2Cl)ccc1[N+](=O)[O-] [Fomesafen, fomesafen]
[1]; 840 g ai/ha
  % Injury PPO H_N10: 4.2% +/− 1.54
[1]; 1680 g ai/ha
  % Injury PPO H_N10: 5.8% +/− 0.83
[2]; 840 g ai/ha
  % Injury negative control: 75.8% +/− 5.83
[2]; 1680 g ai/ha
  % Injury negative control: 94.2% +/− 1.54

## C#CCN1C(=O)COc2cc(F)c(N3C(=O)C4=C(CCCC4)C3=O)cc21 [Flumioxazin, flumioxazin]
[1]; 210 g ai/ha
  % Injury PPO H_N10: 1.7% +/− 1.05
[1]; 420 g ai/ha
  % Injury PPO H_N10: 2.5% +/− 1.71
[2]; 210 g ai/ha
  % Injury negative control: 30% +/− 6.32
[2]; 420 g ai/ha
  % Injury negative control: 60.8% +/− 6.38

## RbcS (SEQ ID NO: 5): Ps.RbcS-3C chloroplast transit peptide, SEQ ID NO:5 (MASMISSSAVTTVSRASRGQSAAMAPFGGLKSMTGFPVRKVNTDITSITSNGGRVKC; listed as Pisum sativum) [reference compound]
[3]; dicamba 1 lb ae/acre
  2X Tolerant events: 8/9
[3]; dicamba 2 lb ae/acre
  4X Tolerant events: 7/7

## CC(C)N(C)S(=O)(=O)NC(=O)c1cc(-n2c(=O)cc(C(F)(F)F)n(C)c2=O)c(F)cc1Cl [Saflufenacil, saflufenacil]
[1]; 200 g ai/ha
  % Injury PPO H_N10: 0% +/− 0
[1]; 400 g ai/ha
  % Injury PPO H_N10: 0.8% +/− 0.83
[2]; 200 g ai/ha
  % Injury negative control: 0% +/− 0
[2]; 400 g ai/ha
  % Injury negative control: 0.8% +/− 0.83

## CCOC(=O)COc1ncccc1Oc1cc(-n2c(=O)cc(C(F)(F)F)n(C)c2=O)c(F)cc1Cl [S-3100, ethyl [3-2-chloro-4-fluoro-5-(1-methyl-6-trifluoromethyl-2,4-dioxo-1,2,3,4-tetrahydropyrimidin-3-yl)phenoxy]-2-pyridyloxyl acetate]
[1]; 80 g ai/ha, +/− standard error
  % Injury PPO H_N10: 3.3% +/− 1.67
[1]; 160 g ai/ha
  % Injury PPO H_N10: 4.2% +/− 1.54
[2]; 80 g ai/ha, +/− standard error
  % Injury negative control: 19.2% +/− 2.39
[2]; 160 g ai/ha
  % Injury negative control: 20.8% +/− 8.31

## Cc1nn(-c2cc(NS(C)(=O)=O)c(Cl)cc2Cl)c(=O)n1C(F)F [Sulfentrazone, sulfentrazone]
[1]; 840 g ai/ha
  % Injury PPO H_N10: 0% +/− 0
[1]; 1680 g ai/ha
  % Injury PPO H_N10: 0% +/− 0
[2]; 840 g ai/ha
  % Injury negative control: 17.5% +/− 11.6
[2]; 1680 g ai/ha
  % Injury negative control: 20% +/− 11.11

B1: 12G088600TP + H_N10: 12G088600TP CTP operably linked to PPO H_N10, construct for soybean (protein, listed as Gossypium raimondii, listed as Escherichia coli)
chain: MLNIAPSCVLASGISKPVTKMASTENKDDHSSAKRMKTLILFSTRDGQTREIASYLASELKELGIQADVANVHRIEEPQWENYDRVVIGASIRYGHYHSAFQEFVKKHATRLNSMPSAFYSVNLVARKPEKRTPQTNSYARKFLMNSQWRPDRCAVIAGALRYPRYRWYDRFMIKLIMKMSGGETDTRKEVVYTDWEQVANFAREIAHLTDKPTLK
[4]; S-3100 5, 10 and 30 g ai/ha applied at V4
  survival for rating at the R1 stage: did not survive
[4]; S-3100 5 g/ha
  Injury V4 stage: 82.7%
[4]; S-3100 10 g/ha
  Injury V4 stage: 92.7%
[4]; S-3100 30 g/ha
  Injury V4 stage: 98.2%

B2: APG6-DMO: APG6 CTP operably linked to dicamba monooxygenase (SEQ ID NO:20 in Brassica, SEQ ID NO:18 in maize) (protein)
chain: MLTFVRNAWYVAALPEELSEKPLGRTILDTPLALYRQPDGVVAALLDICPHRFAPLSDGILVNGHLQCPYHGLEFDGGGQCVHNPHGNGARPASLNVRSFPVVERDALIWIWPGDPALADPGAIPDFGCRVDPAYRTVGGYGHVDCNYKLLVDNLMDLGHAQYVHRANAQTDAFDRLEREVIVGDGEIQALMKIPGGTPSVLMAKFLRGANTPVDAWNDIRWNKVSAMLNFIAVAPEGTPKEQSIHSRGTHILTPETEASCHYFFGSSRNFGIDDPEMDGVLRSWQAQALVKEDKVVVEAIERRRAYVEANGIRPAMLSCDEAAVRVSREIEKLEQLEAA
[5]
  events giving plants with dicamba injury of 20% or less at each of three rating periods: 2
[5]; rated 7 days after each spray
  plants (progeny) with dicamba injury of 20% or less at each of three rating periods: 9
[6]; [10]
  CIPV4 (crop injury percent): 2%
  CIPV8 (crop injury percent): 3%
  Yield: 231.99 bu/ac
[6]; dicamba 2 lbs ae/acre (4×) at V2 fb V4 fb V8, rated ten days after treatment
  CIPV2 (crop injury percent): 0.75%
[6]; [11]
  CIPV2 (crop injury percent): 1.5%
  CIPV4 (crop injury percent): 2%
  CIPV8 (crop injury percent): 7.5%
  Yield: 230.44 bu/ac
[6]; [12]
  CIPV2 (crop injury percent): 1.5%
  CIPV4 (crop injury percent): 4%
  CIPV8 (crop injury percent): 11.25%
  Yield: 242.37 bu/ac
[6]; [13]
  CIPV2 (crop injury percent): 2%
  CIPV4 (crop injury percent): 5.75%
  CIPV8 (crop injury percent): 17.5%
  Yield: 212.34 bu/ac

B3: APG6 + H_N10: APG6 CTP operably linked to PPO H_N10, construct for soybean and cotton (protein, listed as Arabidopsis thalinana, listed as Escherichia coli)
chain: MATATTTATAAFSGVVSVGTETRRIYSFSHLQPSAAFPAKPSSFKSLKLKQSARLTRRLDHRPFVVRCMKTLILFSTRDGQTREIASYLASELKELGIQADVANVHRIEEPQWENYDRVVIGASIRYGHYHSAFQEFVKKHATRLNSMPSAFYSVNLVARKPEKRTPQTNSYARKFLMNSQWRPDRCAVIAGALRYPRYRWYDRFMIKLIMKMSGGETDTRKEVVYTDWEQVANFAREIAHLTDKPTLK
[4]; S-3100 5 g/ha
  Injury R1 stage: 3%
  Injury V4 stage: 4.2%
[4]; S-3100 10 g/ha
  Injury R1 stage: 6.5%
  Injury V4 stage: 7.8%
[4]; S-3100 30 g/ha
  Injury R1 stage: 15.7%
  Injury V4 stage: 9.4%
[7]; 14 multi-copy R0 cotton plants
  average injury: 10.4%
[7]; 21 single-copy R0 cotton plants
  average injury: 26.7%

B4: Optimized APG6: amino-terminal optimized variant of the APG6 CTP, SEQ ID NO:2 (protein)
chain: MASSTTTATAAFSGVVSVGTETRRIYSFSHLQPSAAFPAKPSSFKSLKLKQSARLTRRLDHRPFVVRC
[8]
  dicamba % Injury, V4 stage: 2.2%
[9]
  Dicamba Injury, V4 stage: 2.7%
